Test results taken from US20240279318A1 (NANJING LEGEND BIOTECH, published 2024).

Legend:
[1] = target: T1, AFP158/HLA-A*02:01 complex (human); assay: SPR, crude scFv captured, pMHC analyte;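 note: complex injected at several concentrations over the chip, association phase then running buffer for dissociation, KD derived from on- and off-rates computed from both curves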
T1 construct: flowed as analyte in SPR

[2] = target: T2, AFP158/HLA-A*02:01 complex (human); assay: SPR; vs AS170036 VL1VH1;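 note: crude scFv captured on sensor chip, peptide–HLA complex flowed over at several concentrations, KD estimated from association and dissociation kinetic rates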
T2 construct: biotinylated on the BSP by BirA for ELISA and panning; also called biotinylated AFP158/HLA-A*02:01 complex; Bio-AFP158

[3] = target: T2, AFP158/HLA-A*02:01 complex; assay: SPR, crude scFv captured;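 note: Peptide–MHC complex flowed at several concentrations over sensorchip-captured scFv, Kd derived from on- and off-rates obtained from the association and dissociation curves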

Binder	Kd [1] [nM]	koff [1] [s⁻¹]	kon [1] [M⁻¹ s⁻¹]	Affinity increase [2] [fold]	Kd [3] [nM]
AS170036 VL1VH1 HG56A (scFv) scFv: QSALTQPRSVSGSPGQSVTISCAGTSSDVGSENYVSWYQQHPGKAPKLMIYQVNKRASGVPDRFSGSKSGNTASLTISGLQAEDEADYYCASYRSSDHNIVFGGGTKLTVLGGGGSGGGGSGGGGSEVQLVESGGGLVQPGGSLRLSCAASGFTFSSYAMSWVRQAPGKGLEWVSTINSGTASPYYADSVKGRFTISRDNSKNTLYLQMNSLRAEDTAVYYCAKNFFDGSWFLGPPAMDYWGQGTLVTVSSHHHHHH				1.4	160
AS170036 VL1VH1 HD102S (scFv) scFv: QSALTQPRSVSGSPGQSVTISCAGTSSDVGSENYVSWYQQHPGKAPKLMIYQVNKRASGVPDRFSGSKSGNTASLTISGLQAEDEADYYCASYRSSDHNIVFGGGTKLTVLGGGGSGGGGSGGGGSEVQLVESGGGLVQPGGSLRLSCAASGFTFSSYAMSWVRQAPGKGLEWVSTINSGTGSPYYADSVKGRFTISRDNSKNTLYLQMNSLRAEDTAVYYCAKNFFSGSWFLGPPAMDYWGQGTLVTVSSHHHHHH				0.4	520
AS170036 VL1VH1 HD102N (scFv) scFv: QSALTQPRSVSGSPGQSVTISCAGTSSDVGSENYVSWYQQHPGKAPKLMIYQVNKRASGVPDRFSGSKSGNTASLTISGLQAEDEADYYCASYRSSDHNIVFGGGTKLTVLGGGGSGGGGSGGGGSEVQLVESGGGLVQPGGSLRLSCAASGFTFSSYAMSWVRQAPGKGLEWVSTINSGTGSPYYADSVKGRFTISRDNSKNTLYLQMNSLRAEDTAVYYCAKNFFNGSWFLGPPAMDYWGQGTLVTVSSHHHHHH				0.1	2500
AS170036 VL1VH1 HD102I (scFv) scFv: QSALTQPRSVSGSPGQSVTISCAGTSSDVGSENYVSWYQQHPGKAPKLMIYQVNKRASGVPDRFSGSKSGNTASLTISGLQAEDEADYYCASYRSSDHNIVFGGGTKLTVLGGGGSGGGGSGGGGSEVQLVESGGGLVQPGGSLRLSCAASGFTFSSYAMSWVRQAPGKGLEWVSTINSGTGSPYYADSVKGRFTISRDNSKNTLYLQMNSLRAEDTAVYYCAKNFFIGSWFLGPPAMDYWGQGTLVTVSSHHHHHH				0.1	1900
AS170036 VL1VH1 HD102A (scFv) scFv: QSALTQPRSVSGSPGQSVTISCAGTSSDVGSENYVSWYQQHPGKAPKLMIYQVNKRASGVPDRFSGSKSGNTASLTISGLQAEDEADYYCASYRSSDHNIVFGGGTKLTVLGGGGSGGGGSGGGGSEVQLVESGGGLVQPGGSLRLSCAASGFTFSSYAMSWVRQAPGKGLEWVSTINSGTGSPYYADSVKGRFTISRDNSKNTLYLQMNSLRAEDTAVYYCAKNFFAGSWFLGPPAMDYWGQGTLVTVSSHHHHHH				0.4	590
AS170036 VL1VH1 HD102P (scFv) scFv: QSALTQPRSVSGSPGQSVTISCAGTSSDVGSENYVSWYQQHPGKAPKLMIYQVNKRASGVPDRFSGSKSGNTASLTISGLQAEDEADYYCASYRSSDHNIVFGGGTKLTVLGGGGSGGGGSGGGGSEVQLVESGGGLVQPGGSLRLSCAASGFTFSSYAMSWVRQAPGKGLEWVSTINSGTGSPYYADSVKGRFTISRDNSKNTLYLQMNSLRAEDTAVYYCAKNFFPGSWFLGPPAMDYWGQGTLVTVSSHHHHHH				0.3	880
AS170036 VL1VH1 HD102G (scFv) scFv: QSALTQPRSVSGSPGQSVTISCAGTSSDVGSENYVSWYQQHPGKAPKLMIYQVNKRASGVPDRFSGSKSGNTASLTISGLQAEDEADYYCASYRSSDHNIVFGGGTKLTVLGGGGSGGGGSGGGGSEVQLVESGGGLVQPGGSLRLSCAASGFTFSSYAMSWVRQAPGKGLEWVSTINSGTGSPYYADSVKGRFTISRDNSKNTLYLQMNSLRAEDTAVYYCAKNFFGGSWFLGPPAMDYWGQGTLVTVSSHHHHHH				0.1	2500
AS170036 VL1VH1 HD102E (scFv) scFv: QSALTQPRSVSGSPGQSVTISCAGTSSDVGSENYVSWYQQHPGKAPKLMIYQVNKRASGVPDRFSGSKSGNTASLTISGLQAEDEADYYCASYRSSDHNIVFGGGTKLTVLGGGGSGGGGSGGGGSEVQLVESGGGLVQPGGSLRLSCAASGFTFSSYAMSWVRQAPGKGLEWVSTINSGTGSPYYADSVKGRFTISRDNSKNTLYLQMNSLRAEDTAVYYCAKNFFEGSWFLGPPAMDYWGQGTLVTVSSHHHHHH				1.2	190
AS170036 VL1VH1 HD102L (scFv) scFv: QSALTQPRSVSGSPGQSVTISCAGTSSDVGSENYVSWYQQHPGKAPKLMIYQVNKRASGVPDRFSGSKSGNTASLTISGLQAEDEADYYCASYRSSDHNIVFGGGTKLTVLGGGGSGGGGSGGGGSEVQLVESGGGLVQPGGSLRLSCAASGFTFSSYAMSWVRQAPGKGLEWVSTINSGTGSPYYADSVKGRFTISRDNSKNTLYLQMNSLRAEDTAVYYCAKNFFLGSWFLGPPAMDYWGQGTLVTVSSHHHHHH				0.1	1700
AS170036 VL1VH1 HD102Q (scFv) scFv: QSALTQPRSVSGSPGQSVTISCAGTSSDVGSENYVSWYQQHPGKAPKLMIYQVNKRASGVPDRFSGSKSGNTASLTISGLQAEDEADYYCASYRSSDHNIVFGGGTKLTVLGGGGSGGGGSGGGGSEVQLVESGGGLVQPGGSLRLSCAASGFTFSSYAMSWVRQAPGKGLEWVSTINSGTGSPYYADSVKGRFTISRDNSKNTLYLQMNSLRAEDTAVYYCAKNFFQGSWFLGPPAMDYWGQGTLVTVSSHHHHHH				0.2	950
AS170036 VL1VH1 HD102M (scFv) scFv: QSALTQPRSVSGSPGQSVTISCAGTSSDVGSENYVSWYQQHPGKAPKLMIYQVNKRASGVPDRFSGSKSGNTASLTISGLQAEDEADYYCASYRSSDHNIVFGGGTKLTVLGGGGSGGGGSGGGGSEVQLVESGGGLVQPGGSLRLSCAASGFTFSSYAMSWVRQAPGKGLEWVSTINSGTGSPYYADSVKGRFTISRDNSKNTLYLQMNSLRAEDTAVYYCAKNFFMGSWFLGPPAMDYWGQGTLVTVSSHHHHHH				0.3	840

Continued, values first:

Kd [1] [nM]	koff [1] [s⁻¹]	kon [1] [M⁻¹ s⁻¹]	Affinity increase [2] [fold]	Kd [3] [nM]	Binder
21	0.0035	170000			AS170036 VL1VH1-57M98I108S (scFv, also called 81-AS170036 VL1VH1-57M98I108S) scFv: QSALTQPRSVSGSPGQSVTISCAGTSSDVGSENYVSWYQQHPGKAPKLMIYQVNKRASGVPDRFSGSKSGNTASLTISGLQAEDEADYYCASYRSSDINIVFGGGTKLTVLGGGGSGGGGSGGGGSEVQLVESGGGLVQPGGSLRLSCAASGFTFSSYAMSWVRQAPGKGLEWVSTINSGTGMPYYADSVKGRFTISRDNSKNTLYLQMNSLRAEDTAVYYCAKNFFDGSWFLSPPAMDYWGQGTLVTVSSHHHHHH
			0.1	1800	AS170036 VL1VH1 HD102T (scFv) scFv: QSALTQPRSVSGSPGQSVTISCAGTSSDVGSENYVSWYQQHPGKAPKLMIYQVNKRASGVPDRFSGSKSGNTASLTISGLQAEDEADYYCASYRSSDHNIVFGGGTKLTVLGGGGSGGGGSGGGGSEVQLVESGGGLVQPGGSLRLSCAASGFTFSSYAMSWVRQAPGKGLEWVSTINSGTGSPYYADSVKGRFTISRDNSKNTLYLQMNSLRAEDTAVYYCAKNFFTGSWFLGPPAMDYWGQGTLVTVSSHHHHHH
			0.1	2200	AS170036 VL1VH1 HD102W (scFv) scFv: QSALTQPRSVSGSPGQSVTISCAGTSSDVGSENYVSWYQQHPGKAPKLMIYQVNKRASGVPDRFSGSKSGNTASLTISGLQAEDEADYYCASYRSSDHNIVFGGGTKLTVLGGGGSGGGGSGGGGSEVQLVESGGGLVQPGGSLRLSCAASGFTFSSYAMSWVRQAPGKGLEWVSTINSGTGSPYYADSVKGRFTISRDNSKNTLYLQMNSLRAEDTAVYYCAKNFFWGSWFLGPPAMDYWGQGTLVTVSSHHHHHH
			0.2	1400	AS170036 VL1VH1 HF101D (scFv) scFv: QSALTQPRSVSGSPGQSVTISCAGTSSDVGSENYVSWYQQHPGKAPKLMIYQVNKRASGVPDRFSGSKSGNTASLTISGLQAEDEADYYCASYRSSDHNIVFGGGTKLTVLGGGGSGGGGSGGGGSEVQLVESGGGLVQPGGSLRLSCAASGFTFSSYAMSWVRQAPGKGLEWVSTINSGTGSPYYADSVKGRFTISRDNSKNTLYLQMNSLRAEDTAVYYCAKNFDDGSWFLGPPAMDYWGQGTLVTVSSHHHHHH
			0.3	830	AS170036 VL1VH1 HF101H (scFv) scFv: QSALTQPRSVSGSPGQSVTISCAGTSSDVGSENYVSWYQQHPGKAPKLMIYQVNKRASGVPDRFSGSKSGNTASLTISGLQAEDEADYYCASYRSSDHNIVFGGGTKLTVLGGGGSGGGGSGGGGSEVQLVESGGGLVQPGGSLRLSCAASGFTFSSYAMSWVRQAPGKGLEWVSTINSGTGSPYYADSVKGRFTISRDNSKNTLYLQMNSLRAEDTAVYYCAKNFHDGSWFLGPPAMDYWGQGTLVTVSSHHHHHH
			0.1	1800	AS170036 VL1VH1 HD102V (scFv) scFv: QSALTQPRSVSGSPGQSVTISCAGTSSDVGSENYVSWYQQHPGKAPKLMIYQVNKRASGVPDRFSGSKSGNTASLTISGLQAEDEADYYCASYRSSDHNIVFGGGTKLTVLGGGGSGGGGSGGGGSEVQLVESGGGLVQPGGSLRLSCAASGFTFSSYAMSWVRQAPGKGLEWVSTINSGTGSPYYADSVKGRFTISRDNSKNTLYLQMNSLRAEDTAVYYCAKNFFVGSWFLGPPAMDYWGQGTLVTVSSHHHHHH
			0.1	3700	AS170036 VL1VH1 HF101N (scFv) scFv: QSALTQPRSVSGSPGQSVTISCAGTSSDVGSENYVSWYQQHPGKAPKLMIYQVNKRASGVPDRFSGSKSGNTASLTISGLQAEDEADYYCASYRSSDHNIVFGGGTKLTVLGGGGSGGGGSGGGGSEVQLVESGGGLVQPGGSLRLSCAASGFTFSSYAMSWVRQAPGKGLEWVSTINSGTGSPYYADSVKGRFTISRDNSKNTLYLQMNSLRAEDTAVYYCAKNFNDGSWFLGPPAMDYWGQGTLVTVSSHHHHHH
